Source: article PMC4966956, “Analysis of the Bile Salt Export Pump (ABCB11) Interactome Employing Complementary Approaches” (PLoS ONE, 2016)

Target: T1, bile salt export pump (BSEP), purified, with C-terminal affinity tags (human, UniProt O95342 1-1321)
T1 construct: bile salt export pump (BSEP, ABCB11), human; construct pSGP18-2μ-BSEP; also called purified BSEP; pSGP18-2μ-BSEP; not shown: His tag (inferred from the removal of the tags on Ni-NTA), C-terminal, kept
Test: pull-down; Strep-tagged partner immobilised on Strep-Tactin resin, detergent-solubilised purified BSEP added for 30 min at 4°C; 50 mM sodium phosphate pH 7, 150 mM NaCl, 20% glycerol, 0.022% DDM; immunoblot against BSEP and Strep-tag II
Details: both partners purified

T1 sequence (O95342 whole entry): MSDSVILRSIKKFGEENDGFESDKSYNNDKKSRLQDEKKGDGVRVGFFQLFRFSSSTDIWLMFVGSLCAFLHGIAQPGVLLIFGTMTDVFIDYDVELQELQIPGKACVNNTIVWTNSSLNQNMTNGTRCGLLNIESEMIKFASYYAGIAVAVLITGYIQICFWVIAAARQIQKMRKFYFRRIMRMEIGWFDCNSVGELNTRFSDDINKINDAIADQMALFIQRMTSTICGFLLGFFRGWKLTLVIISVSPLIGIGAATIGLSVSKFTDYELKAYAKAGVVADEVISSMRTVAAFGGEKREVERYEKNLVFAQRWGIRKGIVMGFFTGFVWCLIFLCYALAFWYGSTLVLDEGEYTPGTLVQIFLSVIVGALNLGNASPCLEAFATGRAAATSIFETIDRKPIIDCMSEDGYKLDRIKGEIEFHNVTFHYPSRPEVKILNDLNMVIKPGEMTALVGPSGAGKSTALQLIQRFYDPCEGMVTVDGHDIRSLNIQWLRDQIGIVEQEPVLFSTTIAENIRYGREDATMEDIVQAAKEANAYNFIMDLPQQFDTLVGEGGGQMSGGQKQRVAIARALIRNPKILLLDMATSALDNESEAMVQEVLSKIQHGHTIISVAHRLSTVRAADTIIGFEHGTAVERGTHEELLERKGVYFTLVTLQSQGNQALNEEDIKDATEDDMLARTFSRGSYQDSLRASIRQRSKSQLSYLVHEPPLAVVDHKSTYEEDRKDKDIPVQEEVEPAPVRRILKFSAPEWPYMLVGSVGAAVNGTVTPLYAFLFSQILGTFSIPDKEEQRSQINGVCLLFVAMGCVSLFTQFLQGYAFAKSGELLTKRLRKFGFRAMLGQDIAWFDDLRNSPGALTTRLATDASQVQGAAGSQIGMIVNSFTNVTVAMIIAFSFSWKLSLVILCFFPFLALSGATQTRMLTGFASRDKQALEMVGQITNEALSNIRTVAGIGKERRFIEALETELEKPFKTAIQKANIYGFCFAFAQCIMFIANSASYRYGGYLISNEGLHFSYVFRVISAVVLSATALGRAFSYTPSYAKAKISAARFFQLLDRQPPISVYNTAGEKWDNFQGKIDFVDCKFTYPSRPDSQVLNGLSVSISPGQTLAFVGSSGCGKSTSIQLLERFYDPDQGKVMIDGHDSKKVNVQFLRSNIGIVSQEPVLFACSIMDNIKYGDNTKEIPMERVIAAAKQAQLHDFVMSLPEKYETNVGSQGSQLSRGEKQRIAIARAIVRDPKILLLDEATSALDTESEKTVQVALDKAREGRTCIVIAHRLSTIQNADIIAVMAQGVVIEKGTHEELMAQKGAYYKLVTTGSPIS

B1: BACS_(77-690), Strep-tagged, purified (domain or fragment, human, UniProt Q9Y2P5-1 77-690, looked up)
chain: PARLPPGLRWLPADVIFLAKILHLGLKIRGCLSRQPPDTFVDAFERRARAQPGRALLVWTGPGAGSVTFGELDARACQAAWALKAELGDPASLCAGEPTALLVLASQAVPALCMWLGLAKLGCPTAWINPHGRGMPLAHSVLSSGARVLVVDPDLRESLEEILPKLQAENIRCFYLSHTSPTPGVGALGAALDAAPSHPVPADLRAGITWRSPALFIYTSGTTGLPKPAILTHERVLQMSKMLSLSGATADDVVYTVLPLYHVMGLVVGILGCLDLGATCVLAPKFSTSCFWDDCRQHGVTVILYVGELLRYLCNIPQQPEDRTHTVRLAMGNGLRADVWETFQQRFGPIRIWEVYGSTEGNMGLVNYVGRCGALGKMSCLLRMLSPFELVQFDMEAAEPVRDNQGFCIPVGLGEPGLLLTKVVSQQPFVGYRGPRELSERKLVRNVRQSGDVYYNTGDVLAMDREGFLYFRDRLGDTFRWKGENVSTHEVEGVLSQVDFLQQVNVYGVCVPGCEGKVGMAAVQLAPGQTFDGEKLYQHVRAWLPAYATPHFIRIQDAMEVTSTFKLMKTRLVREGFNVGIVVDPLFVLDNRAQSFRPLTAEMYQAVCEGTWRL
notes: bile acyl-CoA synthetase (BACS, SLC27A5), human, residues 77-690, without the N-terminal membrane anchor, in pET-51b(+); vector pET-51b(+); also called BACS lacking its N-terminal membrane anchor; bile acyl-CoA synthetase; source: E. coli Rosetta (DE3) pLysS, purified (Strep-Tactin)
B1: binds.
